Data from patent US20230088461A1 (NANJING LEGEND BIOTECH, published 2023).
Changes are numbered by the printed parent chain.

B1: LAb19304 (antibody, V domains shown)
VH: QVQLQQSGAELVRPGASVTLSCKASGYTFTAYEMHWVKQTPVHGLEWIGGIDPETGNTAYSQKFKGKATLTADKSSSTAYMEVRSLTSEDSAVYYCSRYYSFAYWGQGTLVTVSA
VL: DVLMTQTPLSLPVSLGDQASISCRSSQTIVHSNGNTYLEWYLQKPGQSPKLLIYKVSNRFSGVPDRFSGSGSGTDFTLKISRVEAEDLGVYYCFQVSHVPYTFGGGTKLEIK
notes: Mouse monoclonal antibody purified from hybridoma supernatant
B2: LAb19305 (antibody, V domains shown)
VH: B1 VH with H43Y, K63N
VL: B1 VL
notes: as for B1
B3: LAb19309 (antibody, V domains shown)
VH: B1 VH with A31D, S97T
VL: B1 VL with S14N, K79R
notes: as for B1
B4: LAb19310 (antibody, V domains shown)
VH: EVQLQQSGPELVKPGPSLKISCKASGYSFTVSPMTWVKQSHGKNLEWIGLIHPYNGDTTYNQKFKGKATLTVDKSSSTAYMELLSLTSEDSAVYYCARWGNYYPYAMDYWGQGTSVTVSS
VL: DIVMTQSQKFMSTSVGDRVSITCKASQNVRSTVAWYQQKPGQSPKALIYLTSNRHTGVPDRFTGSGSGTDFTLTISNVQSEDLADYFCLQHWNYPYTFGGGTKLEIK
notes: as for B1
B5: LAb19301 (antibody, V domains shown)
VH: DVQLQESGPDLVKPSQSLSLTCTVTGYSITSGFSWHWIRQFPGHKLEWMGFMQYSGNTNYNPSLKSRISFTRDTSKNQFFLQLKSVTPEDTATYYCARREEGAWFAYWGQGTLVTVSA
VL: DVVMTQTPLSLPVSLGDQASISCGSSQSLVHSNGNTYLHWYLQKPGQSPKLLIYKVSNRFSGVPDRFSGSGSGTDFTLKISRVEAEDLGVYFCSQSTHFPFTFGSGTKLEIK
notes: as for B1
B6: LAb19306 (antibody, V domains shown)
VH: EVQLVESGGGLVKPGGSLKLSCAASGFAFSTYDMSWVRQTPERRLEWVAYISSGGATTYYPDSVKGRFTISRDNAKNTLYLQMSSLKSEDTAMYYCARLSLMIRGWFAYWGQGTLVTVSA
VL: B5 VL with G24R, F99V, F101Y, S105G
notes: as for B1
B7: LAb19307 (antibody, V domains shown)
VH: EVQLVESGGDLVKPGGSLKLSCAASGFAFGTYDMSWVRQTPEKRLEWVAYISSGGNSPYYPQTVKGRFTISRDNAKNTLYLQMSSLKSEDTAMYYCARQNIARRGAMDFWGQGASVTVSS
VL: B5 VL with M4L, T7S, L11Q, G24T, V30L, F99V, F101P, S105G
notes: as for B1
B8: LAb19302 (antibody, V domains shown)
VH: B6 VH with E1A, K13R, D33G, R43T, R98S, L101I
VL: B5 VL with G24R, L51V, F99V, F101Y, S105G
notes: as for B1
B9: LAb19308 (antibody, V domains shown)
VH: B6 VH with S30I, D33G, R43K, T57N, R98S, L101T, M102L, I103V
VL: B5 VL with G24R, F99V, F101Y, S105G
notes: as for B1
B10: LAb19303 (antibody, V domains shown)
VH: B1 VH with K23E, T30N, A31D, G50A, N57A, S61N, V83L, S91T, S97T
VL: B1 VL with T28S, I29F, E39Q, V96G
notes: as for B1
B11: Chimeric LAb19309-hIgG1 (antibody, V domains shown)
VH: B1 VH with A31D, S97T
VL: DVLMTQTPLSLPVNLGDQASISCRSSQTIVHSNGNTYLEWYLQKPGQSPKLLIYKVSNRFSGVPDRFSGSGSGTDFTLRISRVEAEDLGVYYCFQVSHVPYTFGGGTKLEIKR
notes: The mouse VH/VL numbers follow the parallel order of the lists, as for LAb19309
B12: 9VH1VL3-hIgG1 (antibody, V domains shown)
VH: QVQLVQSGAEVKKPGASVKVSCKASGYTFTDYEMHWVRQAPGQRLEWMGGIDPETGNTAYSQKFKGRVTITRDTSASTAYMELSSLRSEDTAVYYCARYYSFAYWGQGTLVTVSS
VL: DIVMTQSPDSLAVSLGERATINCRSSQTIVHSNGNTYLEWYQQKPGQPPKLLIYKVSNRFSGVPDRFSGSGSGTDFTLTISSLQAEDVAVYYCFQVSHVPYTFGGGTKLEIKR
notes: Humanized LAb19309, full-length human IgG1/kappa; also called 9VH1VL3-hIgG1 mAb
B13: 9VH3VL3-hIgG1 (antibody, V domains shown)
VH: B12 VH with P41T, R44G, I70M, D73N, A76I
VL: B12 VL
notes: Humanized LAb19309, full-length human IgG1/kappa
B14: 9VH3VL2-hIgG1 (antibody, V domains shown)
VH: B12 VH with P41T, R44G, I70M, D73N, A76I
VL: B11 VL with V2I, L3V, T7S, N14T, L15P, D17E, Q18P, K50Q, R79K, L88V
notes: Humanized LAb19309, full-length human IgG1/kappa; also called 9VH3VL2-hIgG1 mAb
B15: Chimeric LAb19305-hIgG1 (antibody, V domains shown)
VH: B1 VH with H43Y, K63N
VL: B11 VL with N14S, R79K
notes: The mouse VH/VL numbers follow the parallel order of the lists, as for LAb19305
B16: 5VH2VL2-hIgG1 (antibody, V domains shown)
VH: B12 VH with D31A, R44G, K63N, I70M, A76T, A79V
VL: B11 VL with V2I, L3V, T7S, N14T, L15P, D17E, Q18P, K50Q, R79K, L88V
notes: Humanized LAb19305, full-length human IgG1/kappa
B17: 5VH2VL3-hIgG1 (antibody, V domains shown)
VH: B12 VH with D31A, R44G, K63N, I70M, A76T, A79V
VL: B12 VL
notes: as for B16
B18: 5VH1VL2-hIgG1 (antibody, V domains shown)
VH: B12 VH with D31A, K63N
VL: B11 VL with V2I, L3V, T7S, N14T, L15P, D17E, Q18P, K50Q, R79K, L88V
notes: as for B16

molecular target: T1, cynomolgus monkey GPC3 on SK-HEP-1-cmGPC3 cells (cynomolgus monkey, UniProt A0A2K5VK50 24-553); experiment: flow cytometry on SK-HEP-1-cmGPC3 cells, PE anti-mouse IgG Fc; note: test concentration or dose not given here
T1 construct: whole, on cells

First: B1
Second: B2
The “Positive population, %” value of the first is higher: 94.6% for the first, 94.2% for the second.

Going from B3 to B4, the “Positive population, %” value falls from 91.9% to 22.3%.

Compared with B5, B6 is lower in “Positive population, %” value: 18.5% for the first, 3.32% for the second.

Compared with B7, B8 is higher in “Positive population, %” value: 11.6% for the first, 12.3% for the second.

For B9, the “Positive population, %” value was 9.55%.

molecular target: T2, human GPC3 on SK-HEP-1-huGPC3 cells (human, UniProt P51654 25-554); experiment: flow cytometry on SK-HEP-1-huGPC3 cells, PE anti-mouse IgG Fc; note: test concentration or dose not given here
T2 construct: whole, on cells

Compared with B1, B2 is higher in “Positive population, %” value: 91.9% for the first, 92.6% for the second.

Going from B3 to B4, the “Positive population, %” value falls from 92.7% to 91.3%.

First: B5
Second: B6
The “Positive population, %” value of the first is lower: 72.6% for the first, 86.2% for the second.

First: B7
Second: B8
The “Positive population, %” value of the first is higher: 92.9% for the first, 91.5% for the second.

B9 was tested, and the “Positive population, %” value was 91.4%.

molecular target: T3, mouse GPC3 on SK-HEP-1-muGPC3 cells (mouse, UniProt Q8CFZ4 25-553); experiment: flow cytometry on SK-HEP-1-muGPC3 cells, PE anti-mouse IgG Fc; note: test concentration or dose not given here
T3 construct: whole, on cells
T3 sequence (Q8CFZ4 25-553 limits assumed): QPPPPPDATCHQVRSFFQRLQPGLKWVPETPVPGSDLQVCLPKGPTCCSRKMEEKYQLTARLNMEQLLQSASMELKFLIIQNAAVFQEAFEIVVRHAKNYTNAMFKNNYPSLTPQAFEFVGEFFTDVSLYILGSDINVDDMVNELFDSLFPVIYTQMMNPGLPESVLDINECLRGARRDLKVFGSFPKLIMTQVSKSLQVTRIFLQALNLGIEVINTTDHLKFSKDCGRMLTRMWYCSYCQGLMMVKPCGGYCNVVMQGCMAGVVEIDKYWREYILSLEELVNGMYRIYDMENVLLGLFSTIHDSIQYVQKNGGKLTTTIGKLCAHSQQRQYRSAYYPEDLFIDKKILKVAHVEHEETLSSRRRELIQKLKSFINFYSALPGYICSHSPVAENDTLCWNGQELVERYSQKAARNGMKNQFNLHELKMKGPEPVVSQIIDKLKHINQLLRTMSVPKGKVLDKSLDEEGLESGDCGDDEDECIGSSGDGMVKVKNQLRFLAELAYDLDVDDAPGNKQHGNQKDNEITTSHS

Going from B10 to B1, the “Positive population, %” value rises from 0.72% to 25.6%.

First: B2
Second: B3
The “Positive population, %” value of the first is higher: 17% for the first, 1.02% for the second.

First: B4
Second: B5
The “Positive population, %” value of the first is higher: 83.9% for the first, 17.5% for the second.

First: B6
Second: B7
The “Positive population, %” value of the first is lower: 75.8% for the first, 83.3% for the second.

First: B8
Second: B9
The “Positive population, %” value of the first is lower: 81.8% for the first, 82.4% for the second.

molecular target: T4, GPC3 (analyte of Tables 9 and 10) (UniProt P51654 25-559, limits assumed); experiment: SPR (Biacore T200), purified antibody captured through Fc, GPC3 as analyte, 1:1 model
Method: (§1) Antibodies were immobilized on the sensor chip through Fc capture method. GPC3 was used as the analyte. The surface was regenerated before the injection of another antibody. The process was repeated until all antibodies are analyzed. The off-rates of antibodies were obtained from fitting the experimental data locally to 1:1 interaction model using the Biacore T200 evaluation software. The data of dissociation (kd) and association (ka) rate constants (KD) were calculated from the ration of kd over ka.

Going from B11 to B12, the Kd falls from 3.56 nM to 1.53 nM (2.3-fold).

Going from B13 to B14, the Kd falls from 1.13 nM to 0.672 nM (1.7-fold).

First: B11
Second: B12
The koff of the first is 1.7-fold higher: 0.000239 s⁻¹ for the first, 0.00014 s⁻¹ for the second.

First: B13
Second: B14
The koff of the first is 1.6-fold higher: 0.000145 s⁻¹ for the first, 9.01e-05 s⁻¹ for the second.

B11 and B12 are within 1.5-fold of each other in kon: 67100 M⁻¹ s⁻¹ for the first, 91300 M⁻¹ s⁻¹ for the second.

B13 and B14 are within 1.5-fold of each other in kon: 129000 M⁻¹ s⁻¹ for the first, 134000 M⁻¹ s⁻¹ for the second.

molecular target: T4, GPC3 (analyte of Tables 9 and 10); experiment: as above; remark: another data set of the same source
Method: as §1

B15 and B16 are within 1.5-fold of each other in Kd: 0.84 nM for the first, 0.572 nM for the second.

First: B17
Second: B18
The Kd of the first is 2-fold lower: 0.544 nM for the first, 1.1 nM for the second.

B15 and B16 are within 1.5-fold of each other in koff: 0.000103 s⁻¹ for the first, 8.91e-05 s⁻¹ for the second.

B17 and B18 are within 1.5-fold of each other in koff: 8.76e-05 s⁻¹ for the first, 0.000117 s⁻¹ for the second.

B15 and B16 are within 1.5-fold of each other in kon: 123000 M⁻¹ s⁻¹ for the first, 156000 M⁻¹ s⁻¹ for the second.

First: B17
Second: B18
The kon of the first is 1.5-fold higher: 161000 M⁻¹ s⁻¹ for the first, 107000 M⁻¹ s⁻¹ for the second.

molecular target: T5, recombinant human GPC3 (human, UniProt P51654 25-559, limits assumed); experiment: SPR (Biacore), antibody as ligand, recombinant human GPC3 as analyte, 1:1 Langmuir model
T5 construct: also called hGPC3
Method: The binding kinetics of the antibodies to recombinant human GPC3 were measured by the surface plasmon resonance (SPR) (e.g., Biacore). Binding rate (Kₐ) and dissociation rates (Kd) were calculated using a simple one-to-one Langmuir binding model (Biacore Evaluation Software). The equilibrium dissociation constant (KD) is calculated as the ratio Kd/Kₐ.

B1 and B2 are within 1.5-fold of each other in Kd: 5.11 nM for the first, 4.19 nM for the second.

First: B3
Second: B4
The Kd of the first is 1.5-fold lower: 8.38 nM for the first, 12.6 nM for the second.

First: B5
Second: B6
The Kd of the first is 4.3-fold higher: 122 nM for the first, 28.4 nM for the second.

B7 and B8 are within 1.5-fold of each other in Kd: 58.7 nM for the first, 71.2 nM for the second.

B9 gave a Kd of 41.4 nM.

B1 and B2 are within 1.5-fold of each other in koff: 0.000138 s⁻¹ for the first, 0.00013 s⁻¹ for the second.

First: B3
Second: B4
The koff of the first is 2.4-fold lower: 0.000195 s⁻¹ for the first, 0.000465 s⁻¹ for the second.

First: B5
Second: B6
The koff of the first is 2.7-fold higher: 0.00207 s⁻¹ for the first, 0.00077 s⁻¹ for the second.

B7 and B8 are within 1.5-fold of each other in koff: 0.00178 s⁻¹ for the first, 0.00184 s⁻¹ for the second.

B9 was tested, and the koff was 0.00102 s⁻¹.

B1 and B2 are within 1.5-fold of each other in kon: 27000 M⁻¹ s⁻¹ for the first, 31100 M⁻¹ s⁻¹ for the second.

Going from B3 to B4, the kon rises from 23300 M⁻¹ s⁻¹ to 36900 M⁻¹ s⁻¹ (1.6-fold).

Compared with B5, B6 is 1.6-fold higher in kon: 16900 M⁻¹ s⁻¹ for the first, 27100 M⁻¹ s⁻¹ for the second.

B7 and B8 are within 1.5-fold of each other in kon: 30200 M⁻¹ s⁻¹ for the first, 25800 M⁻¹ s⁻¹ for the second.

B9 gave a kon of 24700 M⁻¹ s⁻¹.
